T1: full-length collagenase 1 (MMP-1) (Homo sapiens, UniProt P03956)
T1 construct: full-length collagenase 1 (MMP-1)
T1 sequence (P03956 100-469): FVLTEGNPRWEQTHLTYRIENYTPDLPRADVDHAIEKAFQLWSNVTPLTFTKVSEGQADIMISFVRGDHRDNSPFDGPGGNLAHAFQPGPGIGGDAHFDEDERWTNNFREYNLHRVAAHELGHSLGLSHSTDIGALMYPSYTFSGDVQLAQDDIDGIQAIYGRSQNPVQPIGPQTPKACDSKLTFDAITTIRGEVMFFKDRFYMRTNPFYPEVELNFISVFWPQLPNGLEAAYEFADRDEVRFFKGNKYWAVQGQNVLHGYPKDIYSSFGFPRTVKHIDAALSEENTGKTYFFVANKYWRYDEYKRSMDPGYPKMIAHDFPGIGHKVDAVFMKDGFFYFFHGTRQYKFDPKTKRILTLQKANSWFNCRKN

T2: human ADAMTS-4 lacking the C-terminal spacer domain (Homo sapiens, UniProt O75173)
T2 construct: Recombinant human ADAMTS-4 lacking the C-terminal spacer domain; made in house
T2 sequence (O75173 213-685 limits assumed): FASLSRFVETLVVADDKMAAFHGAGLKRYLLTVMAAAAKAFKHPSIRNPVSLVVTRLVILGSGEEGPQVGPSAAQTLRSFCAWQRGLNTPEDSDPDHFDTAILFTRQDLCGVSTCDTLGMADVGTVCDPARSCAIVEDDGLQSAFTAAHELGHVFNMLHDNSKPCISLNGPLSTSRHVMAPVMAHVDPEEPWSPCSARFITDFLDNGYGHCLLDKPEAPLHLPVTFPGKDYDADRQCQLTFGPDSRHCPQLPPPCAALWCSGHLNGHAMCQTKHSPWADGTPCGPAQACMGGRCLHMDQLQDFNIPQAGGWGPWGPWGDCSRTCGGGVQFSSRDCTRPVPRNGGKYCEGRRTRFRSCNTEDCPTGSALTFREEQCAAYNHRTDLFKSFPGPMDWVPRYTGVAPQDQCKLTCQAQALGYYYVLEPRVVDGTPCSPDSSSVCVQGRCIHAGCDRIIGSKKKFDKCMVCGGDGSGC

B1: N-TIMP-3: N-terminal inhibitory domain of TIMP-3 (residues 1 to 121), C-terminally His-tagged, wild-type (protein)
chain: CTCSPSHPQDAFCNSDIVIRAKVVGKKLVKEGPFGTLVYTIKQMKMYRGFTKMPHVQYIHTEASESLCGLKLEVNKYQYLLTGRVYDGKMYTGLCNFVERWDQLTLSQRKGLNYRYHLGCN
B2: -1A: N-TIMP-3 mutant with the addition of an N-terminal alanine extension (-1A) (protein)
chain: ACTCSPSHPQDAFCNSDIVIRAKVVGKKLVKEGPFGTLVYTIKQMKMYRGFTKMPHVQYIHTEASESLCGLKLEVNKYQYLLTGRVYDGKMYTGLCNFVERWDQLTLSQRKGLNYRYHLGCN

Tests used:
[1] = target: T1, full-length collagenase 1 (MMP-1); details: Table I; data taken from ref. 8; read-out: Ki(app) MMP-1; cited from earlier work
[2] = target: catalytic domain of membrane-type 1 MMP (MMP-14(CD)); assay: Enzyme inhibition kinetic study, MMP-14; assay type: biochemical; details: Table I; enzyme 5 nM; pH 7.5; read-out: Ki(app) MMP-14(CD)
Protocol: FIG. 2. Inhibition of MMP and TACE by N-TIMP-3 and its mutants. A. Inhibition of MMP-14(CD) by wild-type and mutated N-TIMP-3. Open circles, wild-type N-TIMP-3; closed circles, T2G; and open squares, -1A. B. Comparison of the inhibition of TACE by wild-type N-TIMP-3, N-TIMP-1 and TAPI-2. The inhibitors were incubated with 0.5 nM TACE for 3 hr at room temperature, and the residual enzyme activity was measured with 10 μM Substrate III (R&D Systems). The assays were performed at pH 9.0 at a final NaCl concentration of 1 mM. Open circles, N-TIMP-3; closed circles, TAPI-2; and open squares, N-TIMP-1. C. Inhibition of TACE (0.5 nM) by wild-type and mutated N-TIMP-3. Open circles, wild-type inhibitor; closed circles, T2G; and open squares, -1A.
Enzyme inhibition kinetic studies—Inhibition kinetic studies for MMPs and TACE were carried out as described previously (19, 27) with modifications. Purified N-TIMP-3 and mutants were dialyzed against 20 mM Tris-HCl (pH 7.0), 50 mM NaCl containing 20% glycerol, centrifuged at 14,000 rpm for 10 min to remove any precipitate, and protein concentration was re-measured before conducting inhibition assays. […]
where v is the experimentally determined reaction velocity, v0 is the uninhibited activity, E is enzyme concentration, I is inhibitor concentration, K is the apparent inhibition constant (Ki^(app)) and h is the Hill coefficient. […]

[3] = target: T2, human ADAMTS-4 lacking the C-terminal spacer domain; assay: ADAMTS-4 inhibition, bovine aggrecan digestion, anti-GELE Western blot; assay type: biochemical; details: 0.5 nM ADAMTS-4, 1 mg/ml bovine aggrecan, 37° C., 2 h; read-out: Ki(app) ADAMTS-4
Protocol: ADAMTS-4 lacking the spacer domain (0.5 nM) was incubated with N-TIMP-3 mutants at the concentration indicated for 30 min and then incubated with 1 mg/ml of bovine aggrecan at pH 7.5 for 2 h at 37° C. The reaction was terminated with 10 mM EDTA and samples were deglycosylated and subjected to Western blotting analysis using antibodies that recognise the fragments with the C-terminal GELE1480 as described by Little et al. The bands were quantified by densitometric analyses.
Recombinant human ADAMTS-4 lacking the C-terminal spacer domain was prepared and expressed as described (Kashimagi, M. et al. J. Biol. Chem. 279, 10109-10119, 2004), and bovine cartilage aggrecan was purified according to Hascall and Sajdesa (J. Biol. Chem. 244, 2384-2396, 1969). Antibody that recognized the fragment with the C-terminal GELE was described by Kashiwagi et al (2004). To examine the inhibition of ADAMTS-4 by (-1A) N-TIMP-3 and N-TIMP-3(T2G), 0.5 nM ADAMTS-4 was incubated with a various concentration of the inhibitor for 30 mins at room temperature and then with 1 mg/ml of bovine aggrecan at 37° C. for 2 h. […] The products were then precipated with 10 vol. of acetone and subjected to Western blotting analysis with the anti-GELE antibody as primary antibody and developed as described by Little et al. The staining intensity of the band was quantified by densitometric analysis.

Molecule | Ki [1] | Ki [2] | Ki [3]
B1 | 1.2 ± 0.5 nM |  | 
B2 |  | 941 ± 206 nM | 18 nM

Reference: patent publication US20090318342A1, “Compounds” (IMPERIAL INNOVATIONS LIMITED, priority 2005, published 2009)
